Reference: US11833164B2, “Methods of treating Fabry disease in patients having a mutation in the GLA gene” (Amicus Therapeutics, Inc., priority 2019, dated 2023)

Test system: mutant form of α-Gal A expressed in HEK-293 cells
Experiment: HEK assay (GLP HEK / Migalastat Amenability Assay): α-Gal A activity in lysates of transiently transfected HEK-293 cells incubated with or without 10 μM migalastat
Assay type: cell-based, human
Conditions: for Absolute increase (% WT): 10 μM migalastat versus baseline; for Relative increase: 10 μM migalastat α-Gal A activity relative to baseline; for 10 μM migalastat α-Gal A activity (% WT): 5 days; for 10 μM migalastat α-Gal A activity (% WT) / Baseline α-Gal A activity (% WT): percentage of baseline wild-type α-Gal A activity; for 10 μM migalastat α-Gal A activity (% WT) / Baseline α-Gal A activity (% WT) / Baseline α-Gal A activity / 10 μM migalastat α-Gal A activity: mean ± SEM; for Baseline α-Gal A activity (% WT): absence of migalastat; for Baseline α-Gal A activity / 10 μM migalastat α-Gal A activity: lysates of HEK-293 cells transfected with the mutant form; for Baseline α-Gal A activity: incubated 5 days in the absence of migalastat; for 10 μM migalastat α-Gal A activity: incubated 5 days with 10 μM migalastat
Summary of the method: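 HEK-293 cells transiently transfected with mutant α-Gal A and incubated with or without 10 μM migalastat; lysate activity given as nmol free 4-MU released per mg protein per hour. Values are mean±SEM.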

| Molecule | Absolute increase (% WT) | Relative increase | 10 μM migalastat α-Gal A activity (% WT) | Baseline α-Gal A activity (% WT) | Baseline α-Gal A activity [nmol/mg/h] | 10 μM migalastat α-Gal A activity [nmol/mg/h] |
| --- | --- | --- | --- | --- | --- | --- |
| L166Q (protein) MQLRNPELHLGCALALRFLALVSWDIPGARALDNGLARTPTMGWLHWERFMCNLDCQEEPDSCISEKLFMEMAELMVSEGWKDAGYEYLCIDDCWMAPQRDSEGRLQADPQRFPHGIRQLANYVHSKGLKLGIYADVGNKTCAGFPGSFGYYDIDAQTFADWGVDQLKFDGCYCDSLENLADGYKHMSLALNRTGRSIVYSCEWPLYMWPFQKPNYTEIRQYCNHWRNFADIDDSWKSIKSILDWTSFNQERIVDVAGPGGWNDPDMLVIGNFGLSWNQQVTQMALWAIMAAPLFMSNDLRHISPQAKALLQDKDVIAINQDPLGKQGYQLRQGDNFEVWERPLSGLAWAVAMINRQEIGGPRSYTIAVASLGKGVACNPACFITQLLPVKRKLGFYEWTSRLRSHINPTGTVLLQLENTMQMSLKDLL | 29.2 | 2.6 | 47.6 ± 1.9 | 18.4 ± 1.2 | 5656 ± 325 | 14720 ± 616 |
| Y173C (protein) MQLRNPELHLGCALALRFLALVSWDIPGARALDNGLARTPTMGWLHWERFMCNLDCQEEPDSCISEKLFMEMAELMVSEGWKDAGYEYLCIDDCWMAPQRDSEGRLQADPQRFPHGIRQLANYVHSKGLKLGIYADVGNKTCAGFPGSFGYYDIDAQTFADWGVDLLKFDGCCCDSLENLADGYKHMSLALNRTGRSIVYSCEWPLYMWPFQKPNYTEIRQYCNHWRNFADIDDSWKSIKSILDWTSFNQERIVDVAGPGGWNDPDMLVIGNFGLSWNQQVTQMALWAIMAAPLFMSNDLRHISPQAKALLQDKDVIAINQDPLGKQGYQLRQGDNFEVWERPLSGLAWAVAMINRQEIGGPRSYTIAVASLGKGVACNPACFITQLLPVKRKLGFYEWTSRLRSHINPTGTVLLQLENTMQMSLKDLL | 29.3 | 1.6 | 80.5 ± 3.3 | 51.1 ± 3.6 | 17669 ± 1240 | 27924 ± 1225 |
| G171V (protein) MQLRNPELHLGCALALRFLALVSWDIPGARALDNGLARTPTMGWLHWERFMCNLDCQEEPDSCISEKLFMEMAELMVSEGWKDAGYEYLCIDDCWMAPQRDSEGRLQADPQRFPHGIRQLANYVHSKGLKLGIYADVGNKTCAGFPGSFGYYDIDAQTFADWGVDLLKFDVCYCDSLENLADGYKHMSLALNRTGRSIVYSCEWPLYMWPFQKPNYTEIRQYCNHWRNFADIDDSWKSIKSILDWTSFNQERIVDVAGPGGWNDPDMLVIGNFGLSWNQQVTQMALWAIMAAPLFMSNDLRHISPQAKALLQDKDVIAINQDPLGKQGYQLRQGDNFEVWERPLSGLAWAVAMINRQEIGGPRSYTIAVASLGKGVACNPACFITQLLPVKRKLGFYEWTSRLRSHINPTGTVLLQLENTMQMSLKDLL | 6.4 | 3.6 | 9.2 ± 0.9 | 2.8 ± 0.2 | 856 ± 62 | 3111 ± 411 |
| F169Y (protein) MQLRNPELHLGCALALRFLALVSWDIPGARALDNGLARTPTMGWLHWERFMCNLDCQEEPDSCISEKLFMEMAELMVSEGWKDAGYEYLCIDDCWMAPQRDSEGRLQADPQRFPHGIRQLANYVHSKGLKLGIYADVGNKTCAGFPGSFGYYDIDAQTFADWGVDLLKYDGCYCDSLENLADGYKHMSLALNRTGRSIVYSCEWPLYMWPFQKPNYTEIRQYCNHWRNFADIDDSWKSIKSILDWTSFNQERIVDVAGPGGWNDPDMLVIGNFGLSWNQQVTQMALWAIMAAPLFMSNDLRHISPQAKALLQDKDVIAINQDPLGKQGYQLRQGDNFEVWERPLSGLAWAVAMINRQEIGGPRSYTIAVASLGKGVACNPACFITQLLPVKRKLGFYEWTSRLRSHINPTGTVLLQLENTMQMSLKDLL | 30.2 | 1.6 | 75.5 ± 3.6 | 45.3 ± 2.8 | 14358 ± 1768 | 23459 ± 2391 |
| F169L (protein) MQLRNPELHLGCALALRFLALVSWDIPGARALDNGLARTPTMGWLHWERFMCNLDCQEEPDSCISEKLFMEMAELMVSEGWKDAGYEYLCIDDCWMAPQRDSEGRLQADPQRFPHGIRQLANYVHSKGLKLGIYADVGNKTCAGFPGSFGYYDIDAQTFADWGVDLLKLDGCYCDSLENLADGYKHMSLALNRTGRSIVYSCEWPLYMWPFQKPNYTEIRQYCNHWRNFADIDDSWKSIKSILDWTSFNQERIVDVAGPGGWNDPDMLVIGNFGLSWNQQVTQMALWAIMAAPLFMSNDLRHISPQAKALLQDKDVIAINQDPLGKQGYQLRQGDNFEVWERPLSGLAWAVAMINRQEIGGPRSYTIAVASLGKGVACNPACFITQLLPVKRKLGFYEWTSRLRSHINPTGTVLLQLENTMQMSLKDLL | 34.5 | 1.7 | 82.3 ± 3.2 | 47.8 ± 2.9 | 15588 ± 1463 | 26527 ± 1806 |
| F169V (protein) MQLRNPELHLGCALALRFLALVSWDIPGARALDNGLARTPTMGWLHWERFMCNLDCQEEPDSCISEKLFMEMAELMVSEGWKDAGYEYLCIDDCWMAPQRDSEGRLQADPQRFPHGIRQLANYVHSKGLKLGIYADVGNKTCAGFPGSFGYYDIDAQTFADWGVDLLKVDGCYCDSLENLADGYKHMSLALNRTGRSIVYSCEWPLYMWPFQKPNYTEIRQYCNHWRNFADIDDSWKSIKSILDWTSFNQERIVDVAGPGGWNDPDMLVIGNFGLSWNQQVTQMALWAIMAAPLFMSNDLRHISPQAKALLQDKDVIAINQDPLGKQGYQLRQGDNFEVWERPLSGLAWAVAMINRQEIGGPRSYTIAVASLGKGVACNPACFITQLLPVKRKLGFYEWTSRLRSHINPTGTVLLQLENTMQMSLKDLL | 42.8 | 5.6 | 53 ± 2.1 | 10.2 ± 0.9 | 2870 ± 239 | 16145 ± 1680 |
| L167I (protein) MQLRNPELHLGCALALRFLALVSWDIPGARALDNGLARTPTMGWLHWERFMCNLDCQEEPDSCISEKLFMEMAELMVSEGWKDAGYEYLCIDDCWMAPQRDSEGRLQADPQRFPHGIRQLANYVHSKGLKLGIYADVGNKTCAGFPGSFGYYDIDAQTFADWGVDLIKFDGCYCDSLENLADGYKHMSLALNRTGRSIVYSCEWPLYMWPFQKPNYTEIRQYCNHWRNFADIDDSWKSIKSILDWTSFNQERIVDVAGPGGWNDPDMLVIGNFGLSWNQQVTQMALWAIMAAPLFMSNDLRHISPQAKALLQDKDVIAINQDPLGKQGYQLRQGDNFEVWERPLSGLAWAVAMINRQEIGGPRSYTIAVASLGKGVACNPACFITQLLPVKRKLGFYEWTSRLRSHINPTGTVLLQLENTMQMSLKDLL | 26.1 | 1.6 | 72.9 ± 2.7 | 46.8 ± 2.2 | 14763 ± 942 | 22948 ± 1321 |
| G171A (protein) MQLRNPELHLGCALALRFLALVSWDIPGARALDNGLARTPTMGWLHWERFMCNLDCQEEPDSCISEKLFMEMAELMVSEGWKDAGYEYLCIDDCWMAPQRDSEGRLQADPQRFPHGIRQLANYVHSKGLKLGIYADVGNKTCAGFPGSFGYYDIDAQTFADWGVDLLKFDACYCDSLENLADGYKHMSLALNRTGRSIVYSCEWPLYMWPFQKPNYTEIRQYCNHWRNFADIDDSWKSIKSILDWTSFNQERIVDVAGPGGWNDPDMLVIGNFGLSWNQQVTQMALWAIMAAPLFMSNDLRHISPQAKALLQDKDVIAINQDPLGKQGYQLRQGDNFEVWERPLSGLAWAVAMINRQEIGGPRSYTIAVASLGKGVACNPACFITQLLPVKRKLGFYEWTSRLRSHINPTGTVLLQLENTMQMSLKDLL | 26.4 | 1.4 | 84 ± 5.7 | 57.6 ± 2.8 | 19081 ± 1801 | 27514 ± 2486 |
| F169C (protein) MQLRNPELHLGCALALRFLALVSWDIPGARALDNGLARTPTMGWLHWERFMCNLDCQEEPDSCISEKLFMEMAELMVSEGWKDAGYEYLCIDDCWMAPQRDSEGRLQADPQRFPHGIRQLANYVHSKGLKLGIYADVGNKTCAGFPGSFGYYDIDAQTFADWGVDLLKCDGCYCDSLENLADGYKHMSLALNRTGRSIVYSCEWPLYMWPFQKPNYTEIRQYCNHWRNFADIDDSWKSIKSILDWTSFNQERIVDVAGPGGWNDPDMLVIGNFGLSWNQQVTQMALWAIMAAPLFMSNDLRHISPQAKALLQDKDVIAINQDPLGKQGYQLRQGDNFEVWERPLSGLAWAVAMINRQEIGGPRSYTIAVASLGKGVACNPACFITQLLPVKRKLGFYEWTSRLRSHINPTGTVLLQLENTMQMSLKDLL | 26.9 | 2.4 | 44.9 ± 2.3 | 18.1 ± 2 | 6861 ± 977 | 16396 ± 1516 |
